In article PMC8547954, “Myopalladin knockout mice develop cardiac dilation and show a maladaptive response to mechanical pressure overload” (eLife, 2021) one finds Kd data, which are given here for 1 molecule.

Settings in all cases: both partners purified
Assay [1] deals with T1, human MYPN C-terminal region including three Ig domains (MYPN C-term; Res. 813-1320), N-terminal 6xHis-tag (human, UniProt Q86TC9-1 813-1320, NT-647 dye via NHS-driven amino coupling (only where it was the labelled partner, Figure 1C)).
T1 construct: Unlabelled in assay a3, labelled with NT-647 in assay a4; also called MYPN C-terminal fragment; MYPN C-terminal domain; source: E. coli BL21-CodonPlus (DE3)-RIPL, purified (HisTrap, Superdex 75 SEC)
T1 sequence (looked up): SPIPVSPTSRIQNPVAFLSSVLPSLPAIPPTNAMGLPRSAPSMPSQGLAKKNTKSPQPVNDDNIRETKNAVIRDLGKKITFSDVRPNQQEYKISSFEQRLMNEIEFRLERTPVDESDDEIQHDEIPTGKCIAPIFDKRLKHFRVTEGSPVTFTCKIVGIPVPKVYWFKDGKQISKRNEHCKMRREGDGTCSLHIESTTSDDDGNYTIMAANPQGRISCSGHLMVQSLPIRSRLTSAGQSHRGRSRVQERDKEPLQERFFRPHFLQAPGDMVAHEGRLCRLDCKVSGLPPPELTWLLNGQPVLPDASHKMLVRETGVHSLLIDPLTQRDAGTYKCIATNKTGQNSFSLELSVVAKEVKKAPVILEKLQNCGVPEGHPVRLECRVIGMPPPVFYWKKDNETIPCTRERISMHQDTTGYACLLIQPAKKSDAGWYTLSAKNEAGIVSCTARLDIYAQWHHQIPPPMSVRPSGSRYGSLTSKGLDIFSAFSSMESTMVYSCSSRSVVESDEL
The experiment in a line: MST; 400 nM NT-647-labelled MYPN C-term titrated with titin Ig Z4-Z5; 30 min at room temperature in 20 mM Tris-HCl pH 8, 150 mM NaCl, 5 mM EDTA, 4 mM DTT; Hill fit; full saturation reached; apparent.

For assay [2], the target named is T1, human MYPN C-terminal region including …. The experiment in a line: MST; 450 nM NT-647-labelled titin Ig Z4-Z5 titrated with MYPN (up to 20 µM) or PALLD (up to 30 µM) C-term; 30 min at room temperature in 20 mM Tris-HCl pH 8, 150 mM NaCl, 5 mM EDTA, 4 mM DTT; Hill fit; saturation not reached, Kd could not be unequivocally determined; apparent.
Assay [3] deals with T2, PALLD C-terminal region (PALLD C-term; Res. 794-1123), N-terminal 6xHis-tag followed by a human rhinovirus 3C … (human, UniProt Q8WX93-9 794-1123).
T2 construct: numbers count on: NM_001166108.1; A 3C protease site follows the tag; also called homologous fragment of PALLD; PALLD C-terminal domain; source: E. coli BL21-CodonPlus (DE3)-RIPL, purified (HisTrap, Superdex 75 SEC)
T2 sequence (looked up): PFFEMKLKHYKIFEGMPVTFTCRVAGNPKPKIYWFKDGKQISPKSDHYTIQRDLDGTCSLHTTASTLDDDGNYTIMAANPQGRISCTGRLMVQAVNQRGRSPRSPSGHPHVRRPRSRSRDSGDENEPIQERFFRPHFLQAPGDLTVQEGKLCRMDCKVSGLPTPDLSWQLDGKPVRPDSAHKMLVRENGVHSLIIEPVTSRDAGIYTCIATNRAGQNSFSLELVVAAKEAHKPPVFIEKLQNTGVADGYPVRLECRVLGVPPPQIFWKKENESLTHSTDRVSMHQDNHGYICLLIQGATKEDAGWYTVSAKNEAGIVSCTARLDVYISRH
The assay is described as above.

B1: titin Ig domains Z4-Z5 (Res. 942-1173), N-terminal 6xHis-tag (domain or fragment, human, UniProt Q8WZ42-1 942-1173, looked up)
chain: PPTLVSGLKNVTVIEGESVTLECHISGYPSPTVTWYREDYQIESSIDFQITFQSGIARLMIREAFAEDSGRFTCSAVNEAGTVSTSCYLAVQVSEEFEKETTAVTEKFTTEEKRFVESRDVVMTDTSLTEEQAGPGEPAAPYFITKPVVQKLVEGGSVVFGCQVGGNPKPHVYWKKSGVPLTTGYRYKVSYNKQTGECKLVISMTFADDAGEYTIVVRNKHGETSASASLLE
modifications: NT-647 dye via NHS-driven amino coupling (only where it was the labelled partner, Figure 1B)
notes: titin, human, Ig domains Z4-Z5, residues 942-1173 of NM_001256850.1; Labelled with NT-647 in assay a3, unlabelled in assay a4; also called titin Ig domain Z4-Z5 peptide; titin Ig domain Z4-Z5 fragment; source: E. coli BL21-CodonPlus (DE3)-RIPL, purified (HisTrap, Superdex 75 SEC)
As to B1, the Kd in assay [1] amounted to 2.8 ± 0.5 µM; in assay [2], 7.2 ± 2.6 µM; in assay [3] it was 6.1 ± 0.8 µM.
